Results taken from article PMC12732654, “Thermodynamic Profiling Reveals DNA Polymerase Template Binding, Substrate Incorporation, and Exonuclease Function”.

What was measured:
[1] = target: T1, SS_01 (engineered Phi29 DNA polymerase) (bacteriophage Phi29 (engineered; …, UniProt P03680 1-575, M97K;A484E;K512Y); experiment: ITC; Ca2+; exothermic, smaller heat than Mg2+; ITC: 1x PBS pH 7.5, 0.01% BSA, 0.05% Tween-20, with no metal, 1 mM MgCl2 or 1 mM CaCl2, 25 C, 5 uM SS_01; EMSA: 20 mM HEPES pH 7.5, 4 mM DTT, 1 mM metal chloride, 30 C 30 min, 100 nM DNA, 10 nM polymerase; conditions: protein: recombinant; single strand
T1 sequence: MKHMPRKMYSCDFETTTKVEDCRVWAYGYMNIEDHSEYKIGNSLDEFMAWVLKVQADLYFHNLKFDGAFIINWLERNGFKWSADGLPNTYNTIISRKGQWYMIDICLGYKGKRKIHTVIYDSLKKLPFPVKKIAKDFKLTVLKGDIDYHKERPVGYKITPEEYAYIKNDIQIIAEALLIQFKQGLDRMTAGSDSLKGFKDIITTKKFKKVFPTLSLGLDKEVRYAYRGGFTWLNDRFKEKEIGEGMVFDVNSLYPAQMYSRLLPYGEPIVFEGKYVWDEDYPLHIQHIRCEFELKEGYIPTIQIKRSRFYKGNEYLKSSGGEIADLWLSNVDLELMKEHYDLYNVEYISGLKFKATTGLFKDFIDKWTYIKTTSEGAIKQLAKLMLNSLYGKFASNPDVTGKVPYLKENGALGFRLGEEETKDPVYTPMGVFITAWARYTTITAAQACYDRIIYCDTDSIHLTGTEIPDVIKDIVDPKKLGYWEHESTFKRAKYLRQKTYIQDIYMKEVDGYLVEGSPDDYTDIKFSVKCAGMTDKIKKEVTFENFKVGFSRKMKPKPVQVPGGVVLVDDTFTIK

[2] = target: T1, SS_01 (engineered Phi29 DNA polymerase); experiment: EMSA; 1 mM Mg2+; ITC: 1x PBS pH 7.5, 0.01% BSA, 0.05% Tween-20, with no metal, 1 mM MgCl2 or 1 mM CaCl2, 25 C, 5 uM SS_01; EMSA: 20 mM HEPES pH 7.5, 4 mM DTT, 1 mM metal chloride, 30 C 30 min, 100 nM DNA, 10 nM polymerase; conditions: protein: recombinant; hairpin, self-primed template
[3] = target: T1, SS_01 (engineered Phi29 DNA polymerase); experiment: ITC; 1 mM Mg2+; 10 uM DNA into 5 uM protein; ITC: 1x PBS pH 7.5, 0.01% BSA, 0.05% Tween-20, with no metal, 1 mM MgCl2 or 1 mM CaCl2, 25 C, 5 uM SS_01; EMSA: 20 mM HEPES pH 7.5, 4 mM DTT, 1 mM metal chloride, 30 C 30 min, 100 nM DNA, 10 nM polymerase; conditions: protein: recombinant; 63 bp duplex, 5' overhang 7 nt on the 70-mer template
[4] = target: T1, SS_01 (engineered Phi29 DNA polymerase); experiment: ITC; no Mg2+; 10 uM DNA into 5 uM protein; ITC: 1x PBS pH 7.5, 0.01% BSA, 0.05% Tween-20, with no metal, 1 mM MgCl2 or 1 mM CaCl2, 25 C, 5 uM SS_01; EMSA: 20 mM HEPES pH 7.5, 4 mM DTT, 1 mM metal chloride, 30 C 30 min, 100 nM DNA, 10 nM polymerase; conditions: protein: recombinant; 63 bp duplex, 5' overhang 7 nt on the 70-mer template
[5] = target: T1, SS_01 (engineered Phi29 DNA polymerase); experiment: ITC; 1 mM Ca2+; ITC: 1x PBS pH 7.5, 0.01% BSA, 0.05% Tween-20, with no metal, 1 mM MgCl2 or 1 mM CaCl2, 25 C, 5 uM SS_01; EMSA: 20 mM HEPES pH 7.5, 4 mM DTT, 1 mM metal chloride, 30 C 30 min, 100 nM DNA, 10 nM polymerase; conditions: protein: recombinant; 63 bp duplex, 5' overhang 7 nt on the 70-mer template
[6] = target: T1, SS_01 (engineered Phi29 DNA polymerase); experiment: ITC; 1 mM Mg2+ (Mg2+/Ca2+ comparison set); ITC: 1x PBS pH 7.5, 0.01% BSA, 0.05% Tween-20, with no metal, 1 mM MgCl2 or 1 mM CaCl2, 25 C, 5 uM SS_01; EMSA: 20 mM HEPES pH 7.5, 4 mM DTT, 1 mM metal chloride, 30 C 30 min, 100 nM DNA, 10 nM polymerase; conditions: protein: recombinant; 63 bp duplex, 5' overhang 7 nt on the 70-mer template

TCCTAACGAGATTAGTTTTGCTGTT (ssDNA) [unmodified oligonucleotide (non-PS)]
binding result [1]: binds

B1: Seq99A hairpin primed template (structured_DNA)
DNA: TTTTTGCGCTCGAGATCTCCGTAAGGAGATCTCGAGCGCGGGACTACTACTGGGATCATCATAGCCACCTCAGCTGCACGTAAGTGCAGCTGAGGTGGC
binding result [2]: binds

B2: 63/70-mer primed template (dsDNA)
DNA 1: TACGCAGCGTACATGCTCGTGACTGGGATAACCGTGCCGTTTGCCGACTTTCGCAGCCGTCCA
DNA 2: AAACCCTTGGACGGCTGCGAAAGTCGGCAAACGGCACGGTTATCCCAGTCACGAGCATGTACGCTGCGTA
modifications: three consecutive phosphorothioates at 3' terminus of 63-mer
Kd [3]: 243 ± 80.5 nM | Kd [4]: 129 ± 9.46 nM | Kd [5]: 317 ± 75.2 nM | Kd [6]: 239 ± 68.2 nM
